According to CN109988240A (ANYUAN BIOTECHNOLOGY SHANGHAI CO LTD; PHARMAB SHANGHAI …, dated 2019):

Key:
[1] = target: T1, 人GPC-3-His(北京义翘神州生物) (human, UniProt P51654 25-559); experiment: affinity and kinetics of Table 2 (table not shown; method not named here, taken as BLI of Example 3.2)
T1 construct: Bought His-tagged protein, coupled to Ni-NTA sensors in the BLI assay; not shown: His tag

[2] = target: T2, 人GPC-3抗原 (磷脂酰肌醇蛋白聚糖3, Glypican-3) (human, UniProt P51654 25-559, limits assumed); experiment: indirect ELISA on coated GPC-3, goat anti-human IgG-HRP detection
T2 construct: The immunogen was bought from Sino Biological (北京义翘神州生物); also called GPC-3蛋白
T2 sequence (P51654 25-559 limits assumed): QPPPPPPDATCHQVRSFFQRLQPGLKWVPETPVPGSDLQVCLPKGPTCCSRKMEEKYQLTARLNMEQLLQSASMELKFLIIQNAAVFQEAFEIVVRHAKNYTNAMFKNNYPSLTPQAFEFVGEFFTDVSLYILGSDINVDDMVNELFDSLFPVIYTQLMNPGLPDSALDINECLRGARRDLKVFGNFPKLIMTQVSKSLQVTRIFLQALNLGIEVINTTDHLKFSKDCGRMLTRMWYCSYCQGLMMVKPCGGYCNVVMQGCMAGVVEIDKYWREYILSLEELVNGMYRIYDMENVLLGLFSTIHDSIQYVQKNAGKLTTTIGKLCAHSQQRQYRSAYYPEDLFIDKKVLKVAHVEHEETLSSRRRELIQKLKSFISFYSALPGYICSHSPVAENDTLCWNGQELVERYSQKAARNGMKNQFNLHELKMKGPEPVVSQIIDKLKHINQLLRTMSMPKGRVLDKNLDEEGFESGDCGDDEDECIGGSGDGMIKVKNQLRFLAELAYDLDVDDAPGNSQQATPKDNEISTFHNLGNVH

[3] = target: T2, 人GPC-3抗原 (磷脂酰肌醇蛋白聚糖3, Glypican-3); experiment: competition ELISA on coated GPC-3 (0.1 μg/ml), competitor GPC-3 antibody-HRP
[4] = target: T2, 人GPC-3抗原 (磷脂酰肌醇蛋白聚糖3, Glypican-3); experiment: indirect ELISA, GPC-3 antigen coated at 0.2 μg/ml
[5] = target: T1, 人GPC-3-His(北京义翘神州生物); experiment: BLI (ForteBio Octet), human GPC-3-His on Ni-NTA sensor, antibody 3.125-100 nM
[6] = target: T1, 人GPC-3-His(北京义翘神州生物); experiment: BLI (ForteBio Octet), human GPC-3-His on Ni-NTA sensor

T1 sequence (P51654 25-559 limits assumed): as above

B1: 人源化抗体AB13E3 (antibody, V domains shown)
VH: QVQLVQSGAEVKKPGASVKVSCKASGYTFTDYEMHWVKQAPGQGLEWIGAIDPQTGNTAFNQKFKGRVTLTRDKSSSTVYMELSSLRSEDTAVYYCTRFYSLTYWGQGTLVTVSS
VL: DVLMTQSPLSLPVTLGQPASISCRSSQSIVHSNGNTYLQWYLQRPGQSPKLLIYKVSNRFSGVPDRFSGSGSGTYFTLKISRVEAEDVGVYYCFQGSHFPYAFGGGTKVEIK
notes: Humanized from GPC3#4 by CDR grafting; detected with goat anti-human IgG
Kd [1]: < 0.01 nM

B2: 人源化抗体AB13E4 (antibody, V domains shown)
VH: QVQLVQSGAEVVKPGASVKLSCKASGYTFTDYEMHWVKQTPGQGLEWIGAIDPQTGNTAFNQKFKGRATLTRDKSSSTAYMEVSSLRSEGTAVYYCTRFYSLTYWGQGTLVTVSS
VL: DVLMTQSPLSLPVTLGQPASISCRSSQSIVHSNGNTYLQWYLQKPGQSPKLLIYKVSNRFSGVPDRFSGSGSGTYFTLKISRVEAEDVGVYYCFQGSHFPYAFGGGTKLEIK
notes: Humanized from GPC3#4 by resurfacing; detected with goat anti-human IgG
Kd [1]: < 0.01 nM
EC50 [2]: 0.001 to 0.01 µg/mL
EC50 [3]: 0.1 to 1 µg/mL

B3: 人源化抗体AB13E1 (antibody, V domains shown)
VH: QVQLVQSGAEVKKPGASVKVSCKASGYTFTDYEMHWVRQAPGQGLEWMGIIDPQTGNTSYAQKFQGRVTMTRDTSTSTVYMELSSLRSEDTAVYYCTRFYSLTYWGQGTLVTVSS
VL: DVVMTQSPLSLPVTLGQPASISCRSSQSIVHSNGNTYLNWFQQRPGQSPRRLIYKVSNRDSGVPDRFSGSGSGTDFTLKISRVEAEDVGVYYCFQGSHFPYAFGGGTKVEIK
notes: Humanized from GPC3#4 by CDR grafting
Kd [1]: < 0.01 nM

B4: 人源化抗体AB13E2 (antibody, V domains shown)
VH: QVQLVQSGAEVKKPGASVKVSCKASGYTFTDYEMHWVRQAPGQGLEWIGAIDPQTGNTSYAQKFQGRVTMTRDTSTSTVYMELSSLRSEDTAVYYCTRFYSLTYWGQGTLVTVSS
VL: DVVMTQSPLSLPVTLGQPASISCRSSQSIVHSNGNTYLNWFQQRPGQSPKLLIYKVSNRDSGVPDRFSGSGSGTDFTLKISRVEAEDVGVYYCFQGSHFPYAFGGGTKLEIK
notes: as for B3
Kd [1]: < 0.01 nM

B5: 人源化抗体AB13E5 (antibody, V domains shown)
VH: QVQLVQSGAEVKKPGASVTLSCKASGYTFTDYEMHWVRQAPGQGLEWMGIIDPQTGNTSYAQKFQGRVTMTRDTSTSTVYMELSSLRSEGSAVYYCTRFYSLTYWGQGTLVTVSS
VL: DVVMTQSPLSLPVTLGDQASISCRSSQSIVHSNGNTYLNWFQQRPGQSPRRLIYKVSNRDSGVPDRFSGSGSGTDFTLKISRVEAEDVGVYYCFQGSHFPYAFGGGTKVEIK
notes: as for B3
Kd [1]: < 0.01 nM

B6: 鼠单克隆抗体GPC3#4(杂交瘤细胞株DWX-1分泌) (antibody, V domains shown)
VH: QVQLQQSGAELVRPGAPVTLSCKASGYTFTDYEMHWVKQTPVNGLEWIGAIDPQTGNTAFNQKFKGKAILTADKSSSTAYMEVRSLTSEGSAVYYCTRFYSLTYWGQGTLVTVSA
VL: DVLMTQVPLSLPVSLGDQASISCRSSQSIVHSNGNTYLQWYLQKPGQSPKLLIYKVSNRFSGVPDRFSGSGSGTYFTLKISRVEAEDLGVYYCFQGSHFPYAFGGGTKLEIK
notes: Mouse antibody purified from hybridoma DWX-1; also called 鼠源抗体GPC3#4; 鼠单抗GPC3#4
EC50 [4]: ~0.01 µg/mL
Kd [5]: 0.00107 nM
koff [5]: 1e-07 s⁻¹
kon [5]: 624000 M⁻¹ s⁻¹
Kd [6]: < 0.01 nM
